Several values for one entry are separate records, joined by “and”; a condition that tells them apart may be missing. Equal values may be shown once.
Experiments:
[1] = target: wild-type rat Neurotensin Receptor 1 (rNTSR1) (rat) (UniProt P20789); experiment: radioligand binding
[2] = target: wild-type human Neurotensin Receptor 1 (hNTSR1) (human) (UniProt P30989); experiment: radioligand binding
wild-type human Neurotensin Receptor 1 (hNTSR1) (human), sequence (P30989 whole entry): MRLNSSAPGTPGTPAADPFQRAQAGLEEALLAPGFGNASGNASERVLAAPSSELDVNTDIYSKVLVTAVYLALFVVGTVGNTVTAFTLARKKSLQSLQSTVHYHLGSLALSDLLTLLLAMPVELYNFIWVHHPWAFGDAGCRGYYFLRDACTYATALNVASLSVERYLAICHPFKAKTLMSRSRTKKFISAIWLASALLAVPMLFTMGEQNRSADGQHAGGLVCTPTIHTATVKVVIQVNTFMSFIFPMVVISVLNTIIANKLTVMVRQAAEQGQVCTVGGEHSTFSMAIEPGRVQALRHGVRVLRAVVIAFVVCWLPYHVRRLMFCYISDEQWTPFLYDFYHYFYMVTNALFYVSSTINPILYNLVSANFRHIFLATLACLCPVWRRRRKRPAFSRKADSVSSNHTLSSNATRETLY

wild-type rat Neurotensin Receptor 1 (rNTSR1) (rat), sequence (P20789 whole entry): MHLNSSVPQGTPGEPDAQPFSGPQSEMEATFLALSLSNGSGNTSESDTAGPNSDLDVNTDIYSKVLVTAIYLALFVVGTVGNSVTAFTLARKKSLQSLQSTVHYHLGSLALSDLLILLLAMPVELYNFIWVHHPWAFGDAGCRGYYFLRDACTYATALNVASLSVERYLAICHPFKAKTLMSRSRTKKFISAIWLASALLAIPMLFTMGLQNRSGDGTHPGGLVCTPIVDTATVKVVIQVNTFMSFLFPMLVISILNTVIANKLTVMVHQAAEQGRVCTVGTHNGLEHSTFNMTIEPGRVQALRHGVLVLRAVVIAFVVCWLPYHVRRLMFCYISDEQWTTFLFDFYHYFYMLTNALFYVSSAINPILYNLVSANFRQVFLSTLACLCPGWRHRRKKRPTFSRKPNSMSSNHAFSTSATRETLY

- Kd [1]: 2.3 nM and 0.67 nM
- Kd [2]: 2.14 nM and 0.92 nM
Substance: [3H]Neurotensin (peptide)

Source: article doi:10.1101/2022.12.26.521971
